In patent publication US20250313635A1, “ANTI-INTEGRIN ANTIBODIES AND USES THEREOF” (Merck Sharp & Dohme LLC, priority 2022, published 2025):
Positions count from the first letter of the chain named. Read-outs that look alike come from different tables or passages of the source.

B1: mAb-24: control antibody abituzumab; 17E6, a therapeutic pan-αv integrin antibody (antibody, chains of the INN, looked up, V domains shown)
VH: QVQLQQSGGELAKPGASVKVSCKASGYTFSSFWMHWVRQAPGQGLEWIGYINPRSGYTEYNEIFRDKATMTTDTSTSTAYMELSSLRSEDTAVYYCASFLGRGAMDYWGQGTTVTVSS
VL: DIQMTQSPSSLSASVGDRVTITCRASQDISNYLAWYQQKPGKAPKLLIYYTSKIHSGVPSRFSGSGSGTDYTFTISSLQPEDIATYYCQQGNTFPYTFGQGTKVEIK
B2: Ab-31: integrin binder antibody, VH SEQ ID NO: 35, VL SEQ ID NO: 36 (antibody, V domains shown)
VH: EVQLQESGPGLVKPSETLSLTCAVSGYSISSGYYWGWIRQPPGKGLEWIGSIYHSGNTYYNPSLKSRVTISVDTSKNQFSLKLSSVTAADTAVYYCARVPRYSRGDAYYYYGMDVWGQGTTVTVSS
VL: DIQMTQSPSTLSASVGDRVTITCRASQSIGSWLAWYQQKPGKAPKLLIYKASSLESGVPSRFSGSGSGTEFTLTISSLQPDDFATYYCQQSGPYPWTFGGGTKVEIK
B3: Ab-32: integrin binder antibody, VH SEQ ID NO: 37, VL SEQ ID NO: 38 (antibody, V domains shown)
VH: B2 VH
VL: EIVLTQSPGTLSLSPGERATLSCRASQSVRSSYLAWYQQKPGQAPRLLIYGASSRATGIPDRFSGSGSGTDFTLTISRLEPEDFAVYYCQQAGLVFTFGGGTKVEIK
B4: Ab-33: integrin binder antibody, VH SEQ ID NO: 39, VL SEQ ID NO: 40 (antibody, V domains shown)
VH: EVQLVQSGAEVKKPGSSVKVSCKASGGTFSNYAISWVRQAPGQGLEWMGGIIPIFGTANYAQKFQGRVTITADESTSTAYMELSSLRSEDTAVYYCARAPRSARGDMYYYYYGMDVWGQGTTVTVSS
VL: B2 VL with S91Y, P93R
B5: Ab-29: integrin binder antibody, VH SEQ ID NO: 31, VL SEQ ID NO: 32 (antibody, V domains shown)
VH: ELQLQESGPGLVKPSETLSLTCTVSGGSISSNSYYWGWIRQPPGKGLEWIGSIYYSGSTYYNPSLKSRVTISVDTSKNQFSLKLSSVTAADTAVYYCARVRRVAGRGDSYYYYYGMDVWGQGTTVTVSS
VL: DIQMTQSPSSVSASVGDRVTITCRASQGISRWLAWYQQKPGKAPKLLIYAASSLQSGVPSRFSGSGSGTDFTLTISSLQPEDFATYYCQQAISHPWTFGGGTKVEIK
B6: Ab-30: integrin binder antibody, VH SEQ ID NO: 33, VL SEQ ID NO: 34 (antibody, V domains shown)
VH: B2 VH
VL: DIQMTQSPSTLSASVGDRVTITCRASQSISSWLAWYQQKPGKAPKLLIYKASSLESGVPSRFSGSGSGTEFTLTISSLQPDDFATYYCQQVKIYPPYTFGGGTKVEIK

Legend:
human αvβ8 = molecular target: T1, human αvβ8 (Homo sapiens, UniProt P06756+P26012); assay: Latent TGFβ activation assay, TMLC / CHOK1-integrin co-culture (PAI-1 luciferase); assay type: cell-based; conditions: FIG. 5B
T1 construct: expressed in transfected cells
Method: (§1) Latent TGFβ activation assay. Transfected mink lung epithelial cell (TMLC) cell line containing the TGFβ responsive PAI-1 promoter driving luciferase expression (Mazzieri et al, Methods Mol. Biol. 142, 13-27 (2000)) and the CHO-K1 human and mouse αvβ×integrin cell lines were grown under optimized growth conditions to 90% confluency. TMLC cells were trypsinized and plated at 25,000 cells/well in 50 μL in Costar clear bottom white walled plates. In a separate plate, 25 μL of serially diluted antibodies at 4×concentration were added to wells containing 25 μL of either 25,000 cells of human or mouse αvβ×cells. After a brief mixing, the 50 μL mixture was transferred to the TMLC cell plates for a total volume of 100 μL and incubated at 37° C. for 16 hours. 100 μL of ONE-Glo kit (#PRE6120) was added to each well and read after three to five minutes on the Envision plate reader.

mouse αvβ1 = molecular target: T2, mouse αvβ1 (Mus musculus, UniProt P09055+P43406); assay: as above; assay type: cell-based; conditions: FIG. 5B
T2 construct: expressed in transfected cells
Method: as §1

human αvβ1 = molecular target: T3, human αvβ1 (Homo sapiens, UniProt P05556+P06756); assay: as above; assay type: cell-based; conditions: FIG. 5B
T3 construct: expressed in transfected cells
Method: as §1

human αvβ6 = molecular target: T4, human αvβ6 (Homo sapiens, UniProt P06756+P18564); assay: as above; assay type: cell-based; conditions: FIG. 5B
T4 construct: expressed in transfected cells
Method: as §1

mouse αvβ6 = molecular target: T5, mouse αvβ6 (Mus musculus, UniProt P43406+Q9Z0T9); assay: as above; assay type: cell-based; conditions: FIG. 5B
T5 construct: expressed in transfected cells
Method: as §1

mouse αvβ8 = molecular target: T6, mouse αvβ8 (Mus musculus, UniProt P43406+Q0VBD0); assay: as above; assay type: cell-based; conditions: FIG. 5B
T6 construct: expressed in transfected cells
Method: as §1

mαvβ1 = molecular target: T7, mαvβ1 (Mus musculus, UniProt P09055+P43406); assay: Mouse AlphaLISA integrin-ligand blocking assay (fibronectin); assay type: biochemical; conditions: Table 12; read-out: IC50 Mouse integrin AlphaLISA assays mαvβ1
T7 construct: The full extracellular domains for all α and β integrin subunits; (GGGS)3 linker (C); acidic coiled-coil with cysteine (C); GG-Avitag (C); hexa-histidine tag (C); basic coiled-coil with cysteine (C); made in house; host or cells: Expi293 cells
T7 sequence (P43406 31-988 limits assumed): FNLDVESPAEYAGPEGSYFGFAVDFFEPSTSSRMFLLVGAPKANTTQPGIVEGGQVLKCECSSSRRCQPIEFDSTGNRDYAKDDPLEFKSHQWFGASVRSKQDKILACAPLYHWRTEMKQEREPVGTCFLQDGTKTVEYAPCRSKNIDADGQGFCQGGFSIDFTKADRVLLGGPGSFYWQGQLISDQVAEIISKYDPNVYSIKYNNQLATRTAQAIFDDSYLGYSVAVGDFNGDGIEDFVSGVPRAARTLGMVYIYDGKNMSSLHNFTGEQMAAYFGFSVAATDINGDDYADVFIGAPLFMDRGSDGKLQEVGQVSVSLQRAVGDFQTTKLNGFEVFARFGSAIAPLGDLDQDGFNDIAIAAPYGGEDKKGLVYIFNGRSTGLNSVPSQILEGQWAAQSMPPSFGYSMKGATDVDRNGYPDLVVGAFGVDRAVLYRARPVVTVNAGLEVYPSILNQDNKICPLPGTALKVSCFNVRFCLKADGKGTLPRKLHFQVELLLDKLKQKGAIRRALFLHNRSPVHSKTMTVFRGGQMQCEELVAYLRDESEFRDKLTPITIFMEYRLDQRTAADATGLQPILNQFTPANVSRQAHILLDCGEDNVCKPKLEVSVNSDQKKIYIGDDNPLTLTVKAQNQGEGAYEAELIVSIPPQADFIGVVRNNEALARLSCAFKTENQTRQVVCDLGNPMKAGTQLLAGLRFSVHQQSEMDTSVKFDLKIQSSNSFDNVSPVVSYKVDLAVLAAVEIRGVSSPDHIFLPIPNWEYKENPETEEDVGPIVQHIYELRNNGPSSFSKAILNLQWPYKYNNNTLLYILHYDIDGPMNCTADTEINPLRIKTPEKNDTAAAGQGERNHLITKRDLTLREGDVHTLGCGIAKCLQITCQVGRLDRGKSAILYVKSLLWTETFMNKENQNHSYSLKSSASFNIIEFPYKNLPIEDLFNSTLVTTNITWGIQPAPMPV
T7 sequence (P09055 21-728 limits assumed): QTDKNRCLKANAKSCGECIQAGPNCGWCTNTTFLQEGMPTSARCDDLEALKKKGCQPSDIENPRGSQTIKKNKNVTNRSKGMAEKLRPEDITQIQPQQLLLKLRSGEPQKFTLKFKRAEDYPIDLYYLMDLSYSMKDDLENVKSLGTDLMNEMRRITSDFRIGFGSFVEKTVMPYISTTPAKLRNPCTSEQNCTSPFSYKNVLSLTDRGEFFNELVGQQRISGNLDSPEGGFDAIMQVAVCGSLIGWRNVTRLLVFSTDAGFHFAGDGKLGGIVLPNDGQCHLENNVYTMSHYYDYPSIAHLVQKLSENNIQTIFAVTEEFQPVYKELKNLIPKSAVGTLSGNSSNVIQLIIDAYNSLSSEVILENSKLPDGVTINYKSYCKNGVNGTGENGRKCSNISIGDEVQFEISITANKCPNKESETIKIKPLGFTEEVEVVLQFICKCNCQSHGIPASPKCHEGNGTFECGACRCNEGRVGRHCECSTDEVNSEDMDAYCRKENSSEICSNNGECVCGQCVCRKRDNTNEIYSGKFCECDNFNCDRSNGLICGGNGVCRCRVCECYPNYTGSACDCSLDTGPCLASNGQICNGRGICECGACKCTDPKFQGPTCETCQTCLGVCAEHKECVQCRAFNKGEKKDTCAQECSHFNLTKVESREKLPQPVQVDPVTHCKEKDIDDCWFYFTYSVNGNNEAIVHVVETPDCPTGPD
Method: (§2) Integrin AlphaLISA assay. In the AlphaLISA integrin assays, we used a HEPES based buffer (25 mM HEPES pH 7.4, 137 mM NaCl, 1 mM MgCl2, 1 mM MnCl2, 2 mM CaCl2, 2.7 mM KCl, and 0.05% Tween 20). Optimal assay conditions were determined with a titration of the reagents for signal noise ratio (S/N), linear range, etc. For the respective integrins, we used the final concentrations described in Table 9.
(§3) Briefly, the testing antibody (8 μL) was added as a 4×(of Final testing concentration) solution in the HEPES buffer described previously into a 384w AlphaPlate™ (Perkin Elmer #6005350). Then the integrin and ligand were added sequentially as 8×(4 μL each). Plates were sealed and incubated at room temperature for two hours. Then 4×acceptor bead solution ([…]) was added, and the plates were resealed and incubated at room temperature (RT) for one hour. Finally, 4×([…]) donor beads solution was added in a darkened room and incubated for 45 minutes at room temperature. Plates were read on the Envision (Perkin Elmer) in AlphaScreen™ mode within three hours of donor bead addition.

mα5β1 = molecular target: T8, mα5β1 (Mus musculus, UniProt P09055+P11688); assay: as above; assay type: biochemical; conditions: Table 12; read-out: IC50 Mouse integrin AlphaLISA assays mα5β1
T8 construct: The full extracellular domains for all α and β integrin subunits; (GGGS)3 linker (C); acidic coiled-coil with cysteine (C); GG-Avitag (C); hexa-histidine tag (C); basic coiled-coil with cysteine (C); made in house; host or cells: Expi293 cells
T8 sequence (P11688 45-999 limits assumed): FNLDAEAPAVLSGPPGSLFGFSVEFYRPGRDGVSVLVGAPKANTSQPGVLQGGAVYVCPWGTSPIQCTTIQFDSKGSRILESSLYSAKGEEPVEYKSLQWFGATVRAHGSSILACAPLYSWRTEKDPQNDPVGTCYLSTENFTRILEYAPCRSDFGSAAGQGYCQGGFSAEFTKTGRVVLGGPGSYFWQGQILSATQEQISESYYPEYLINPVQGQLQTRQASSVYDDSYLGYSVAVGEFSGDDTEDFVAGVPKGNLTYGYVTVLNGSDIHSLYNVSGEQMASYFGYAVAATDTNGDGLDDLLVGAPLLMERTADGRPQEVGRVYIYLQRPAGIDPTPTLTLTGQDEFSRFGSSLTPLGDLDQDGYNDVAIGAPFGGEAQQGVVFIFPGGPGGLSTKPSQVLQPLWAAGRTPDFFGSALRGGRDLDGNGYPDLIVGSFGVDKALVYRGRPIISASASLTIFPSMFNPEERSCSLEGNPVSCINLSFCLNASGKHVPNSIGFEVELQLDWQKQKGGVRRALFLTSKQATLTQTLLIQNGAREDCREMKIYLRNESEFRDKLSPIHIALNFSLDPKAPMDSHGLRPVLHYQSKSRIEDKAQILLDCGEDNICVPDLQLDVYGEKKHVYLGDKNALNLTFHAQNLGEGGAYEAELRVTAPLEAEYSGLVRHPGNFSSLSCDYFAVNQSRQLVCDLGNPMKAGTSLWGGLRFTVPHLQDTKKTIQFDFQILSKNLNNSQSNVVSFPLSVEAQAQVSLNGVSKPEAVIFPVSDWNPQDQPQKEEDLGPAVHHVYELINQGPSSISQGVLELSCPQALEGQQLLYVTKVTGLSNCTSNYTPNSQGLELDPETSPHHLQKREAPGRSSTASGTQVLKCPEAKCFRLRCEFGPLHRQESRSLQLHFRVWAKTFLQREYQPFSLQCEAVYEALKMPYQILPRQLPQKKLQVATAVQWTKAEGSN
T8 sequence (P09055 21-728 limits assumed): as the sequence (P09055 21-728 limits assumed) above
Method: as §2, §3

hαvβ6 = molecular target: T9, hαvβ6 (Homo sapiens, UniProt P06756+P18564); assay: Integrin cell-based ELISA (CELISA) binding, CHOK1-human αvβ6 cells; conditions: FIG. 3C
T9 construct: expressed in transfected cells
Method: (§4) Integrin cell-based ELISA (CELISA) assay. Cell binding EC50 data for antibodies were obtained for CHOK1 parental cells and CHOK1 cells expressing human or mouse αvβ1, αvβ6, and αvβ1 integrins by cell-based ELISA. Three days prior to the assay cells were seeded at 10,000 cells per well in 100 μL/well of media in Falcon 96-well Flat-Bottom Tissue Culture Plates (REF 353916), resulting in an even cell monolayer in each well on the day of the assay. On the day of the assay, media was removed from the cells and a fivefold titration of primary antibodies was added at concentrations ranging from 0 to 200 nM in TBSF+MnCl2 buffer (25 mM Tris, 0.15 M NaCl, 0.1% BSA, 0.5 mM MnCl2, pH 7.5). Cells incubated with primary antibody solution for 1 hour at room temperature. Primary antibody was removed and plates were washed twice with 150 μL/well of 1×DPBS+Tween 20 (TEKnova Cat #β0297, diluted to 1× in distilled water GIBCO #15230-147), before adding 50 μL/well of a 1:5000 dilution of HRP-conjugated goat anti-mouse IgG (Southern Biotech, #1030-05) in TBSF+MnCl2. After 30 minutes of incubation at room temperature, secondary antibody was removed, and cells were washed twice with 150 μL/well of 1×DPBS+Tween 20. […] Absorbance was read on a TECAN plate reader at 450 nm, with a 620 nm reference wavelength.

[1] = system: IPF patient lung fibroblasts; assay: αSMA imaging, TGFβ-induced αSMA expression; assay type: cell-based, human; conditions: TGFβ 5 ng/mL, 48 hours
Method: (§5) αSMA imaging. Primary cells (passage 3-5) were grown on Cell carrier Ultra, collagen Type 1 coated 96-well plates (Perkin Elmer, #6055700) at a density of 25,000 cells/well. Once the cells adhere, they were starved in serum free media for 24 hours followed by addition of treatments, i.e., 5 ng/mL TGFβ (Biolegend #580702)±inhibitors. Cells were pre-treated with inhibitors for 30 minutes prior to the addition of TGFβ stimulation. 48 hours post treatment, the cells were fixed in 4% methanol free paraformaldehyde (ThermoFisher Scientific #28908) for 20 minutes at room temperature and incubated with anti-alpha smooth muscle Actin antibody (Abcam #ab7817) at 1:4000 overnight at 4° C. Following primary antibody incubation, cells were incubated with Goat anti-mouse secondary antibody (ThermoFisher Scientific #A32723) at 1:500 and Hoechst (ThermoFisher Scientific #62249) at 1:1000 for one hour at RT. The fixed and stained cells were images for immunofluorescence on Perkin Elmer's Opera Phenix high content Imager.

mαvβ8 = molecular target: T10, mαvβ8 (Mus musculus, UniProt P43406+Q0VBD0); assay: Mouse AlphaLISA integrin-ligand blocking assay (LAP); assay type: biochemical; conditions: Table 12; read-out: IC50 Mouse integrin AlphaLISA assays mαvβ8
T10 construct: The full extracellular domains for all α and β integrin subunits; (GGGS)3 linker (C); acidic coiled-coil with cysteine (C); GG-Avitag (C); hexa-histidine tag (C); basic coiled-coil with cysteine (C); made in house; host or cells: Expi293 cells
T10 sequence (P43406 31-988 limits assumed): as the sequence (P43406 31-988 limits assumed) above
T10 sequence (Q0VBD0 22-681 limits assumed): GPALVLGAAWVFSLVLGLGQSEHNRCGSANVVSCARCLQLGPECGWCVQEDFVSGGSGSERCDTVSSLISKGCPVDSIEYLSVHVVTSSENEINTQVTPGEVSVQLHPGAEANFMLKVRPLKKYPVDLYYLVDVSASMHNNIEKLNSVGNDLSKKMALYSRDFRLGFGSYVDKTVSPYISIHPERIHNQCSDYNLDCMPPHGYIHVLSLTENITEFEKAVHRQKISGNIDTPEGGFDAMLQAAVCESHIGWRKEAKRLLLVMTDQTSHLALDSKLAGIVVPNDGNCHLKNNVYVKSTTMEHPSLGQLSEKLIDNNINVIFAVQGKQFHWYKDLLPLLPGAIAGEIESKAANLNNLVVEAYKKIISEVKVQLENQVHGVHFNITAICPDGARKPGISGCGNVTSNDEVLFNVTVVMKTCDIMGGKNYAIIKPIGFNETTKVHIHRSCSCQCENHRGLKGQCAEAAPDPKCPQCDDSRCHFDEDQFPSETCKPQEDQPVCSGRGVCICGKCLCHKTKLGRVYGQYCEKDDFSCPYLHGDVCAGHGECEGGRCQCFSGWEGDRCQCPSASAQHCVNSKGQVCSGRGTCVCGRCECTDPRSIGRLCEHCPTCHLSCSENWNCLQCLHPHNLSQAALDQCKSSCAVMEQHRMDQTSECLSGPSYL
Method: as §2, §3

mαvβ6 = molecular target: T11, mαvβ6 (Mus musculus, UniProt P43406+Q9Z0T9); assay: as above; assay type: biochemical; conditions: Table 12; read-out: IC50 Mouse integrin AlphaLISA assays mαvβ6
T11 construct: The full extracellular domains for all α and β integrin subunits; (GGGS)3 linker (C); acidic coiled-coil with cysteine (C); GG-Avitag (C); hexa-histidine tag (C); basic coiled-coil with cysteine (C); made in house; host or cells: Expi293 cells
Method: as §2, §3

hαvβ1 = molecular target: T12, hαvβ1 (Homo sapiens, UniProt P05556+P06756); assay: Integrin cell-based ELISA (CELISA) binding, CHOK1-human αvβ1 cells; conditions: FIG. 3C
T12 construct: expressed in transfected cells
Method: as §4

mαvβ3 = molecular target: T13, mαvβ3 (Mus musculus, UniProt O54890+P43406); assay: Mouse AlphaLISA integrin-ligand blocking assay (vitronectin); assay type: biochemical; conditions: Table 12; read-out: IC50 Mouse integrin AlphaLISA assays mαvβ3
T13 construct: The full extracellular domains for all α and β integrin subunits; (GGGS)3 linker (C); acidic coiled-coil with cysteine (C); GG-Avitag (C); hexa-histidine tag (C); basic coiled-coil with cysteine (C); made in house; host or cells: Expi293 cells
T13 sequence (P43406 31-988 limits assumed): as the sequence (P43406 31-988 limits assumed) above
T13 sequence (O54890 26-717 limits assumed): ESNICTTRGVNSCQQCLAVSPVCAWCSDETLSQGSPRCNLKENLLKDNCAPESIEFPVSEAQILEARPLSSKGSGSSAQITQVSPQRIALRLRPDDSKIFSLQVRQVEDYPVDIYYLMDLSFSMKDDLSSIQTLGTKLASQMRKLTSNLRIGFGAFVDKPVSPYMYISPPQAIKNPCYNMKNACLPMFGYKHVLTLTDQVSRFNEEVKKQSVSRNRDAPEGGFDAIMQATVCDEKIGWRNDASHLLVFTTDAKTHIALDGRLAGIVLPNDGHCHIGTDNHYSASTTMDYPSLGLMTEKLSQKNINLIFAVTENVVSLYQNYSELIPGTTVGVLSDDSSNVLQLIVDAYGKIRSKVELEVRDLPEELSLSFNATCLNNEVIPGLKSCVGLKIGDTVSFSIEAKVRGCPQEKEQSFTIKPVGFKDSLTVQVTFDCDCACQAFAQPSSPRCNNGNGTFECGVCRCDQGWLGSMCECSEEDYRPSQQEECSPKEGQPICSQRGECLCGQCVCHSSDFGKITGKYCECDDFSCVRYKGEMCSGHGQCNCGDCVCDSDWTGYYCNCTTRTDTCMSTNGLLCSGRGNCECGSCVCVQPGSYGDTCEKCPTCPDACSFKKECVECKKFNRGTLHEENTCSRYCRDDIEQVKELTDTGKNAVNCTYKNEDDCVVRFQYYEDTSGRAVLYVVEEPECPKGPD
Method: as §2, §3

mαvβ5 = molecular target: T14, mαvβ5 (Mus musculus, UniProt O70309+P43406); assay: as above; assay type: biochemical; conditions: Table 12; read-out: IC50 Mouse integrin AlphaLISA assays mαvβ5
T14 construct: The full extracellular domains for all α and β integrin subunits; (GGGS)3 linker (C); acidic coiled-coil with cysteine (C); GG-Avitag (C); hexa-histidine tag (C); basic coiled-coil with cysteine (C); made in house; host or cells: Expi293 cells
T14 sequence (P43406 31-988 limits assumed): as the sequence (P43406 31-988 limits assumed) above
T14 sequence (O70309 24-719 limits assumed): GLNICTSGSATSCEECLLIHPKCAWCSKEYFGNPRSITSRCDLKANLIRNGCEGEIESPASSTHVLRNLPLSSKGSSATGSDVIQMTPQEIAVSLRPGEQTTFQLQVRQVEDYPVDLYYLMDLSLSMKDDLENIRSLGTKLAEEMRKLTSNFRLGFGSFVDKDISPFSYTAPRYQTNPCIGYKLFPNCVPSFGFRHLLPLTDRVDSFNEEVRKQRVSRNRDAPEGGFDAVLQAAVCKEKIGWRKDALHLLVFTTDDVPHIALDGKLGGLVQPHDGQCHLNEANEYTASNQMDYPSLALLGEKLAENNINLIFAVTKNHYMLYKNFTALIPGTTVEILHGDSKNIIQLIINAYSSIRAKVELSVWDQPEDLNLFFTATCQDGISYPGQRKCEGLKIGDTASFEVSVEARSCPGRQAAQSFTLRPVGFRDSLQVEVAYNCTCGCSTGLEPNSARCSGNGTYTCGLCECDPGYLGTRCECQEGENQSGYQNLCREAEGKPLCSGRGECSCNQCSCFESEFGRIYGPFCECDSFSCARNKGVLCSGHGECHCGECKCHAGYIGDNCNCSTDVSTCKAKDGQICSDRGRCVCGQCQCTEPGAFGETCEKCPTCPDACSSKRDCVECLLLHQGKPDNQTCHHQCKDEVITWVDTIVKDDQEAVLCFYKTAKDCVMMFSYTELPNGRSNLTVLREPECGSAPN
Method: as §2, §3

hα5β1 = hα5β1 (Homo sapiens, UniProt P05556+P08648); assay: Human AlphaLISA integrin-ligand blocking assay (fibronectin); assay type: biochemical; set-up: The full extracellular domains for all α and β integrin subunits; (GGGS)3 linker (C); acidic coiled-coil with cysteine (C); GG-Avitag (C); hexa-histidine tag (C); basic coiled-coil with cysteine (C); made in house; host or cells: Expi293 cells; conditions: Table 11; read-out: IC50 Human integrin AlphaLISA assays hα5β1
Method: as §2, §3

[2] = system: Normal human lung fibroblasts; assay: αSMA imaging, TGFβ-induced αSMA expression; assay type: cell-based
Method: as §5

Molecule | IC50 (mα5β1) | IC50 (mαvβ8) | IC50 (mαvβ5) | also measured
B1 | > 250 nM | > 250 nM | > 250 nM | inhibition of latent TGFβ activation, human αvβ8 co-culture (human αvβ8): potent; inhibition of latent TGFβ activation, mouse αvβ1 co-culture (mouse αvβ1): minimal activity; inhibition of latent TGFβ activation, human αvβ1 co-culture (human αvβ1): potent; inhibition of latent TGFβ activation, human αvβ6 co-culture (human αvβ6): potent; inhibition of latent TGFβ activation, mouse αvβ6 co-culture (mouse αvβ6): minimal activity; inhibition of latent TGFβ activation, mouse αvβ8 co-culture (mouse αvβ8): minimal activity; IC50 (mαvβ1): > 250 nM; binding to human αvβ6 integrin in CELISA (hαvβ6): preferentially bound; IC50 ([1]; read-out: IC50 of αSMA expression): > 1000 nM; IC50 (mαvβ6): > 250 nM; binding to human αvβ1 integrin in CELISA (hαvβ1): preferentially bound; IC50 (mαvβ3): > 250 nM; IC50 (hα5β1): > 250 nM
B2 | > 250 nM | 66.3 nM | > 250 nM | IC50 ([1]; read-out: IC50 of TGFβ-mediated αSMA induction): 33 ± 21 nM; activity on TGFβ-induced αSMA in normal human lung fibroblasts [2]: ineffective
B3 | > 250 nM | 71.9 nM | > 250 nM | –
B4 | > 250 nM | 24.7 nM | – | –
B5 | > 250 nM | 102 nM | – | –
B6 | > 250 nM | 25.1 nM | > 250 nM | –
